From patent US9035028B2, “Temperature sensitive conjugate compositions” (Emory University, priority 2010, dated 2015)

Experiments:
[1] = Circular dichroism (CD) spectra and thermal transition profile; assay type: physicochemical
Description: The mathematical fitting of the CD data allowed the determination of the transition temperature (Tt) resulting from conformational change of EMP as the temperature is increased. The mathematical fitting of the CD data to the van't Hoff equation allowed the determination of the transition temperature (Tt) resulting from conformational change of EMP and EMP-scFv as the temperature is increased.
Circular dichroism (CD) spectra were recorded on a Jasco J-810 spectropolarimeter equipped with a PFD-425S Peltier temperature control unit in 0.1 cm sealed quartz cells at concentrations of 7.5 μM (EMP), 8.4 μM (scFv) and 4.1 μM (EMP-scFv) in 50 mM sodium phosphate buffer, pH 7.4. Temperature/wavelength CD-scans were performed within the temperature range from 5° C. to 35° C. with equilibration for 10 min at each temperature. Spectra were obtained from 260 to 190 nm at a resolution of 0.5 nm and at a scanning speed of 50 nm/min. The CD curves represented the average of five measurements and were smoothed using the means-movement method on the interval analysis of the spectral manager program. CD data are reported as mean residue ellipticity ([θ], deg cm^2 dmol^−1). Thermal transition curves were plotted by the mean residue ellipticity as a function of temperature for the disappearance of the random coil and the appearance of the β-turn structure.

[2] = tested on: carotid artery thrombosis; test: Ferric chloride-induced mouse carotid artery thrombosis model; assay type: in vivo; conditions: compared to the control group
Description: (§1) C57BL/6 mice weighing from 20-25 g were used. Care and use of laboratory animals followed the national guidelines and were approved by the institutional animal care and ethics committees. Mice were anesthetized with isoflurane, following an intra-peritoneal injection with ketamine (100 mg/kg BW) and xylazine (20 mg/kg BW). The body core temperature was monitored with a digital thermometer, and controlled at either 28° C. or 37° C. with a thermal pad (Temperature Controller TR-200, Fine Science Tools Inc.). Reducing the body temperature to 28° C. was achieved by a gradual drop, at a rate of 0.3-0.4° C./min. The mice on the thermal pad were placed under a dissecting microscope (SZ61, Olympus). An incision of the skin was made directly on the top of trachea, and vessels used for experiment were bluntly isolated from surrounding tissues. […] After rinsing with normal saline, a nano-Doppler flow probe (0.5 VB, Transonic) was then positioned over the vessel and the blood flow rate (ml/min) was measured by a transit-time perivascular flow-meter (TS420, Transonic Systems Inc.). […] Jugular vein blood flow was recorded 15 minutes after induction of injury in mice pre-treated with EMP-scFv, eptifibatide or saline. The blood flow recorded at 1 minute was considered as the initial blood flow rate. […]

[3] = tested on: jugular venous thrombosis; test: Model of jugular venous thrombosis; assay type: in vivo, mouse; conditions: 28° C., 15 minutes after the injury, vs control group and 37° C.
Description: as §1

[4] = tested on: platelet aggregates; test: Flow chamber: binding to platelet aggregates under physiological flow; assay type: cell-based; conditions: hypothermic temperatures
Description: Temperature-dependent binding of EMP-scFv to platelet aggregates was analysed using a flow chamber system. Vitrotubes rectangular capillaries (0.20×2.0 mm) were washed with 70% ethanol, dried, and coated overnight with 10 μg/ml of collagen (Collagen Reagent Horm Nycomed). Liquid was entered into the capillary via capillary drag. Capillaries were blocked for 1 hour with 1% BSA and then washed with PBS. The capillary was connected on the one end to a reservoir and on the other end to a Harvard medical pump by tubing. Before connecting the capillary all tubes were flushed with PBS in order to avoid air bubbles entering the capillary. PRP was then drawn into the capillary and numerous platelet aggregates were formed within 10 minutes. The capillary was then washed with PBS via the pump. In the meantime, the EMP-scFv (50 μg/mL) was incubated with PENTA-HIS Alexa Fluor 488 (Qiagen) antibody for 10 minutes in a final volume of 1 mL, and then drawn into the capillary containing platelet aggregates at physiological flow rate of 60s^−1. The capillary was then imaged with a 20× magnification objective, after which DIC and fluorescent images were captured using Olympus IX81 microscope with XM10 camera. The experiments were conducted at 22° C. and 37° C.

B1: EMP-scFv: fusion of elastin mimetic polypeptide (EMP) and activation-specific GPIIb/IIIa-blocking single-chain antibody; 704 amino acids, approximately 70 kDa (protein)
chain: MAVPAVGIPAVGIPAVGIPAVGIPAVGIPAVGIPAVGIPAVGIPAVGIPAVGIPAVGIPAVGIPAVGIPAVGIPAVGIPAVGIPAVGIPAVGIPAVGIPAVGIPAVGIPAVGIPAVGIPAVGIPAVGIPAVGIPAVGIPAVGIPAVGIPAVGIPAVGIPAVGIPAVGIPAVGIPAVGIPAVGIPAVGIPAVGIPAVGIPAVGIPAVGIPAVGIPAVGIPAVGIPAVGIPAVGIPAVGIPAVGIPAVGIPAVGIPAVGIPAVGIPAVGIPAVGIPAVGIPAVGIPAVGIPAVGIPAVGIPAVGIPAVGIPAVGIPAVGIPAVGIPAVGIPAVGIPAVGIPAVGIPAVGIPAVGIPAVGIPAVGIPAVGIPAVGIPAVGIPAVGIPAVGIPAVGIPAVGIPAVGIPGGGGSMMAEVQLVESGGGLVQPGGSLRLSCAASGFMFSRYAMSWVRQAPGKGPEWVSGISGSGGSTYYADSVKGRFTVSRDNSKNTLYLQMNSLRAEDTAVYYCARIFTHRSRGDVPDQTSFDYWGQGTLVTVSSGSASAPKLEEGEFSEARVSSELTQDPAVSVALGQTVRITCQGDSLRNFYASWYQQKPGQAPTLVIYGLSKRPSGIPDRFSASSSGNTASLTITGAQAEDEADYYCLLYYGGGQQGVFGGGTKLTVLRQPKAAPSVTLFPPSSAAAGSEQKLISEEDLNSHHHHHH
transition temperature (Tt), disappearance of the random coil ([1]; CD data at 200 nm): 15 °C | transition temperature (Tt), appearance of the β-turn structure ([1]; CD data at 215 nm): 28 °C | temperature at which structural change and hydrophobic collapse were completed ([1]; thermal transition curve): higher than 35 °C | occlusion time ([2]; 28° C.): significantly prolonged | occlusion time ([2]; 37° C.): remained unchanged | percentage of initial blood flow [3]: significantly higher levels of blood flow | binding to platelet aggregates under flow [4]: induced binding
